Values quoted from earlier work, collected in publication PMC5031454.

Target: Dscam1 Ig1-4 (Drosophila melanogaster) (UniProt Q0E9H9)
Chain of UniProt Q0E9H9 (Q0E9H9 39-421): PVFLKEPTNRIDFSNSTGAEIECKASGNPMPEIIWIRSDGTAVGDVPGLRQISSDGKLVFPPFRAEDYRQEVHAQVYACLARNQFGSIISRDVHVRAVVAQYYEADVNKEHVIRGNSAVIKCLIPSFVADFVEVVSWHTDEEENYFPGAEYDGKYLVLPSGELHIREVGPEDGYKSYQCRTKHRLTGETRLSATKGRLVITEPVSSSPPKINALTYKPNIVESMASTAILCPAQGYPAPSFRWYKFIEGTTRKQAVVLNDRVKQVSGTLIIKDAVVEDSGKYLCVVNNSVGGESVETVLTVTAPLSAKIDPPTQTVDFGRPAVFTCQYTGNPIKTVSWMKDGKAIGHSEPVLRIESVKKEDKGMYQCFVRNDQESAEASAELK

- Kd: 22 nM
Substance: Slit-N N-terminal fragment (from UniProt P24014)
